Legend:
[1] = system: porcine articular cartilage; assay: IL-1α-stimulated porcine articular cartilage degradation, GAG release (DMMB); assay type: cell-based; details: IL-1α 10 ng/ml, 3 days
Method: FIG. 7. Inhibition of IL-1a stimulated porcine articular cartilage degradation by N-terminal mutants of N-TIMP-3. Porcine articular cartilage pieces were cultured for three days. Cartilage was stimulated with IL-1α (10 ng/ml) with TIMPs at the concentrations indicated. Glycosaminoglycan (GAG) release in the media was measured by dimethyl methylene blue (DMMB).
Porcine articular cartilage from the metacarpophalangeal joints of 3-9 month old pigs is dissected into small shavings approximately 3 mm long and 2-3 mm wide. After dissection, the cartilage is allowed to rest for 24 h at 37° C. under 5% CO2 in DMEM containing penicillin-streptomycin, amphotericin B, and 5% fetal calf serum. The medium is then replaced with fresh media and the cartilage is rested for a further 24-48 h. […]
GAG released into the conditioned media is measured in duplicate using a modification of the dimethylmethylene blue (DMMB) assay as described in Farndale et al.. […] The % of total GAG released into the medium is calculated as follows: % of total GAG released=(total GAG in the medium)/(total GAG in the medium+total GAG remaining in the cartilage).
Porcine articular cartilage pieces were cultured for 3 days. […] Glycosaminoglycan (GAG) release in the media was measured by dimethyl methylene blue (DMMB).

gelatinase A (MMP-2) = target: T1, gelatinase A (MMP-2) (Homo sapiens, UniProt P08253); details: Table I; data taken from ref. 8; read-out: Ki(app) MMP-2; cited from earlier work
T1 sequence (P08253 110-660): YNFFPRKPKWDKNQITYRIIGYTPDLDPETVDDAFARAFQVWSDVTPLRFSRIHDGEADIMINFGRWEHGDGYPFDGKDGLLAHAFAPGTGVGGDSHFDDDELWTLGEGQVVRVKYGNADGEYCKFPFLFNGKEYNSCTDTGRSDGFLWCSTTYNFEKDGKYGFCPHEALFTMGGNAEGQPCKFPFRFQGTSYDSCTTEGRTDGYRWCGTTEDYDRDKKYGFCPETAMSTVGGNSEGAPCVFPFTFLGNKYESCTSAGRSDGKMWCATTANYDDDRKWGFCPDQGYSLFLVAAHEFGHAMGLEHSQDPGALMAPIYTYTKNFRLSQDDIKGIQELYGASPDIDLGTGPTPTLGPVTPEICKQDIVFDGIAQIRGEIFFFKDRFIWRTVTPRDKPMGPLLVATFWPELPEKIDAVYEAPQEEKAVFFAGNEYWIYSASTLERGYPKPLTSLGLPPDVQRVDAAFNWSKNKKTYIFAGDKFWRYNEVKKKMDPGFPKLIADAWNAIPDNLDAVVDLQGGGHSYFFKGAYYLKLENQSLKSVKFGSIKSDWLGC

[2] = system: aggrecanase activity in IL-1α- and retinoic acid-stimulated cartilage; assay: Aggrecanase-generated aggrecan fragments in cartilage conditioned media, Western analysis; assay type: cell-based; details: IL-1α- and retinoic acid-stimulated cartilage
Excerpt: Aggrecan fragments released into the conditioned medium are deglycosylated by digestion with chondroitinase ABC and keratanase and the samples are subjected to SDS/PAGE and Western blotting analysis as described by Little et al.. The primary antibodies used to detect aggrecanase-generated and MMP-generated aggrecan fragments are BC-3 and BC-14, respectively. Antigen-antibody complexes are detected by anti-mouse AP-linked donkey antibody and the AP substrate.
Conditioned media from the above experiments were analyzed by monoclonal antibodies that recognize either the aggrecanase-generated aggrecan neoepitope ARGSV or the MMP-generated aggrecan neoepitope FFGVG. In concordance with GAG release, there was an increase in the amount of aggrecanase-generated aggrecan fragments released upon treatment with either stimulus, but no MMP-generated fragments were detected.

[3] = target: T2, full-length collagenase 1 (MMP-1) (Homo sapiens, UniProt P03956); details: Table I; data taken from ref. 8; read-out: Ki(app) MMP-1; cited from earlier work
T2 construct: full-length collagenase 1 (MMP-1)
T2 sequence (P03956 100-469): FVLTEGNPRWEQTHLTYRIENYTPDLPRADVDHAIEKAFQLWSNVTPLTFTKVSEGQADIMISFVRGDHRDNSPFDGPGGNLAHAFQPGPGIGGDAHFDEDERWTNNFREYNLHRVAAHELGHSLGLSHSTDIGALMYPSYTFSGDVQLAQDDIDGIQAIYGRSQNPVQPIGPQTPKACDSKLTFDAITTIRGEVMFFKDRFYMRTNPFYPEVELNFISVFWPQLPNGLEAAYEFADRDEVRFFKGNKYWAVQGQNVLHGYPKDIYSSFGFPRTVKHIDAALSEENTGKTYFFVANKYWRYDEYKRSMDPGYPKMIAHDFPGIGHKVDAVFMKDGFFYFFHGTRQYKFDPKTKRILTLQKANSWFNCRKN

[4] = system: bovine nasal cartilage explants; assay: IL-1α-stimulated bovine nasal cartilage explants, GAG release; assay type: cell-based; details: 3 days
Method: GAG released into the conditioned media is measured in duplicate using a modification of the dimethylmethylene blue (DMMB) assay as described in Farndale et al.. Shark chondroitin sulfate (0-2.62 μg) is used as standard. The % of total GAG released into the medium is calculated as follows: % of total GAG released=(total GAG in the medium)/(total GAG in the medium+total GAG remaining in the cartilage).
Bovine nasal cartilage explants were stimulated with IL-1α in the presence or absence of N-TIMP-1, TIMP-2, or N-TIMP-3 for 3 days.

[5] = target: T3, catalytic domain of stromelysin 1 (MMP-3(ΔC)) (Homo sapiens, UniProt P08254); details: Table I; data taken from ref. 8; read-out: Ki(app) MMP-3(ΔC); cited from earlier work
T3 construct: the catalytic domains of stromelysin 1 (MMP-3(ΔC)) and membrane-type 1 MMP (MMP-14)
T3 sequence (P08254 100-272 limits assumed, stated change not applied): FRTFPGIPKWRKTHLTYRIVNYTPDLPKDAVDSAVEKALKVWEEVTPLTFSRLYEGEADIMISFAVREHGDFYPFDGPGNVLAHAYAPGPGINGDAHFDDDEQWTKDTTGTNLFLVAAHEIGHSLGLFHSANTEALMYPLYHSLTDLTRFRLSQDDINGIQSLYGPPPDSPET

B1: N-TIMP-3: N-terminal inhibitory domain of TIMP-3 (residues 1 to 121), C-terminally His-tagged, wild-type (protein)
chain: CTCSPSHPQDAFCNSDIVIRAKVVGKKLVKEGPFGTLVYTIKQMKMYRGFTKMPHVQYIHTEASESLCGLKLEVNKYQYLLTGRVYDGKMYTGLCNFVERWDQLTLSQRKGLNYRYHLGCN
[1]
  Inhibition of IL-1α stimulated cartilage degradation (GAG release): dose dependently inhibited degradation
Gelatinase A (MMP-2)
  Ki: 4.3 ± 0.5 nM
[2]; 0.05 μM
  Release of aggrecanase-generated aggrecan fragments: partially inhibited
[2]; 0.1 μM
  Release of aggrecanase-generated aggrecan fragments: completely blocked
[3]
  Ki: 1.2 ± 0.5 nM
[4]
  Inhibition of IL-1α-stimulated GAG release: significantly inhibited
[5]
  Ki: 67 ± 2.8 nM

— US20090318342A1, “Compounds” (IMPERIAL INNOVATIONS LIMITED, priority 2005, published 2009)
